Results on 7 molecules are retold here after US20140220040A1 (ARCA BIOPHARMA, published 2014).

Substitutions are numbered along the chain they refer to.

One may read the Kd as the constant that tells how readily two partners part at equilibrium. By koff is commonly meant a measure of how fast the partners let go of each other. Broadly, the kon is the second-order rate constant of association.

The target of test [1] is T1, Human LRP6-Fc (R&D Systems), recombinant human LRP6 containing the complete extracellular domain (human, UniProt O75581 20-1370).
T1 construct: Bought protein; also called hLRP6; Fc-antigen; not shown: Fc part of the bought fusion protein
T1 sequence: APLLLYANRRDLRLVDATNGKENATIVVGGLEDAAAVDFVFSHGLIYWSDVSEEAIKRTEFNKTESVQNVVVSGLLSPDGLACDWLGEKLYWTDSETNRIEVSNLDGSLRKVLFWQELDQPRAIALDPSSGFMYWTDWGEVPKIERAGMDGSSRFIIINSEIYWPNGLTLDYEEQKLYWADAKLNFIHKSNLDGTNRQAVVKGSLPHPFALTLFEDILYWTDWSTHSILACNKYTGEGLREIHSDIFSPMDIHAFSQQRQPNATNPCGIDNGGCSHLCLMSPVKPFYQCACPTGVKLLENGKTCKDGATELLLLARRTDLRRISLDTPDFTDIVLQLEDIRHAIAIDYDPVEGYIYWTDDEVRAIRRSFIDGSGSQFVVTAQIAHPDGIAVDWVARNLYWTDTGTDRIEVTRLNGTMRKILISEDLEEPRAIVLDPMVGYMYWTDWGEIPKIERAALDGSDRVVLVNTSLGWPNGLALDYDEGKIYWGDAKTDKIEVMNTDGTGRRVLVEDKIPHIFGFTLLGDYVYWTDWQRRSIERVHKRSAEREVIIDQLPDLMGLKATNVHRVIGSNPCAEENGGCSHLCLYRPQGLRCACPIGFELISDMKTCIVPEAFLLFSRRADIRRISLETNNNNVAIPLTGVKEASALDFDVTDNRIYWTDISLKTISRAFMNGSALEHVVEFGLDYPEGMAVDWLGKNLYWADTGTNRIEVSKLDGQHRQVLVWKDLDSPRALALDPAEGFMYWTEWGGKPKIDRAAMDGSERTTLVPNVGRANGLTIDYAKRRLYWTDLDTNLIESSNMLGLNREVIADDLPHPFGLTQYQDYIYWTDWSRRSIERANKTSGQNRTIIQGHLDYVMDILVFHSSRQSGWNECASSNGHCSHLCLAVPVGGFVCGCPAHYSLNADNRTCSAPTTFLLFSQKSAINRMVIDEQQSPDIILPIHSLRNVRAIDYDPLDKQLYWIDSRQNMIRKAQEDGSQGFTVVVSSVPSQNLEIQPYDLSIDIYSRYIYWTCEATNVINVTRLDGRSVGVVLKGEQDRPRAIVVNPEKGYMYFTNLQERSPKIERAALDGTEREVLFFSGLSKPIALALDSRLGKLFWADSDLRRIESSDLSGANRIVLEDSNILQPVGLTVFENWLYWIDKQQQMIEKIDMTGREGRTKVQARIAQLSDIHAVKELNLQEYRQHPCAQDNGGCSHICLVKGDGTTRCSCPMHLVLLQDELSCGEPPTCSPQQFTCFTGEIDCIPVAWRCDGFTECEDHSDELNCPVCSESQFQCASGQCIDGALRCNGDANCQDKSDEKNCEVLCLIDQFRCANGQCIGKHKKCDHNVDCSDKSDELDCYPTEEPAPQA
Kind of test: SPR (BIAcore), mAb captured on anti-mouse chip, Fc-antigen injected, 1:1 model. As for the experimental part:
(§1) Kinetic rate constants (kₐ and kd) were determined using surface plasmon resonance, and affinities (KD) were then calculated from the rate constants (kd/kₐ). Surface plasmon resonance was carried out on a BIAcore system (Biacore International AB, Uppsala, Sweden). Each murine anti-LRP6 mAb sample was diluted 100 fold and captured onto an anti-mouse sensor chip surface. The running buffer contained 10 mM HEPES, 150 mM NaCl, 0.005% Tween-20 and 0.1 mg/ml BSA. Following the capturing step, the Fc-antigen was injected at 45 nM as the highest concentration in a 3-fold dilution series. The association and dissociation phases were monitored for 8 and 60 minutes, respectively. The antigen response data were fit into a 1:1 interaction model.
Background: SPR reads the build-up and loss of mass on a sensor chip optically.

Test [2] has as its target T1, Human LRP6-Fc (R&D Systems), …. Kind of test: SPR (BIAcore): mAb captured on an anti-mouse chip, Fc-antigen injected from 45 nM in 3-fold dilutions, 1:1 fit [cont., panel R]. As for the experimental part: as §1
Test [3] shares this target. Kind of test: SPR (BIAcore): mAb captured on an anti-mouse chip, Fc-antigen injected from 45 nM in 3-fold dilutions, 1:1 fit. The sheet prints no unit for ka; the unit is from the head of Table 4. [cont., panel R]. As for the experimental part:
as §1

The target is the same in test [4]. Kind of test: SPR (BIAcore): mAb captured on an anti-mouse chip, Fc-antigen injected from 45 nM in 3-fold dilutions, 1:1 fit. The sheet prints no unit for kd; the unit is from the head of Table 4. [cont., panel R]. As for the experimental part: as §1
Test [5] deals with T2, LRP6Δ1-2 propeller domain deletion construct (human, UniProt O75581 629-1613).
T2 construct: Deletion construct of human LRP6 expressed in 293 cells
T2 sequence: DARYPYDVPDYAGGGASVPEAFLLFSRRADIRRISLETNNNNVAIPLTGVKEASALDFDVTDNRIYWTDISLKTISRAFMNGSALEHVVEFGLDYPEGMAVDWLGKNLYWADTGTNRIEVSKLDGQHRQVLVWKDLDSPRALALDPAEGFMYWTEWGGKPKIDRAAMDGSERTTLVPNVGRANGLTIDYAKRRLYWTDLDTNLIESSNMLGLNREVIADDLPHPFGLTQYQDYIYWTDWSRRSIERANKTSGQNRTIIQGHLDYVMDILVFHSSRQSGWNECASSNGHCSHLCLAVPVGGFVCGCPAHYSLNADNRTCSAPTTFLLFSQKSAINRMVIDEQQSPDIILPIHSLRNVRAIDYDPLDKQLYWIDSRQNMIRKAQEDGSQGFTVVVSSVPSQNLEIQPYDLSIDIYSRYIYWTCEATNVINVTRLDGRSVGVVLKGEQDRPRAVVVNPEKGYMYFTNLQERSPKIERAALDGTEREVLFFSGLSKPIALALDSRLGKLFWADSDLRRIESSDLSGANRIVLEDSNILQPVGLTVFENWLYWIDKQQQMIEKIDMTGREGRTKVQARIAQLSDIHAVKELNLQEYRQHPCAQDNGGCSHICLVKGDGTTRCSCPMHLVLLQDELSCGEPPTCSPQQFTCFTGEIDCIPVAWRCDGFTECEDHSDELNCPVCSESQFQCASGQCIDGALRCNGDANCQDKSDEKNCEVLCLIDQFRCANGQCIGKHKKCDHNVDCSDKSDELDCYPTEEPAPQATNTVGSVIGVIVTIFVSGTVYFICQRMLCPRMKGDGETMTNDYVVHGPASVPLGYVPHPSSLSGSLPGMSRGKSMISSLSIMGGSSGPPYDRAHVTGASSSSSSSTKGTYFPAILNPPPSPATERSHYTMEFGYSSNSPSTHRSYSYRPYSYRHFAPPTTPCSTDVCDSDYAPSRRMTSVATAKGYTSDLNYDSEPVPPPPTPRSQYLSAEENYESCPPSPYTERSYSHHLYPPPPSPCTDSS
Kind of test: flow cytometry on 293 cells expressing the deletion construct. As for the experimental part:
(§2) To identify the region of LRP6 that is recognized by LRP6 mAbs, a series of LRP6 propeller domain deletion constructs were made (SEQ ID NO: 6-15) and expressed in 293 cells. Binding of anti-LRP6 mAbs was determined by flow cytometry. […] Amino acid sequence alignments of the heavy and light chain variable domains of the anti-LRP6 mAbs disclosed herein are shown in FIGS. 4 and 5, respectively.
In general terms: Flow cytometry measures light scatter and fluorescence of single cells or particles in a stream.

The next test addresses T3, LRP6Δ1/4.
T3 construct: also called LRP6Del1-4
T3 chain: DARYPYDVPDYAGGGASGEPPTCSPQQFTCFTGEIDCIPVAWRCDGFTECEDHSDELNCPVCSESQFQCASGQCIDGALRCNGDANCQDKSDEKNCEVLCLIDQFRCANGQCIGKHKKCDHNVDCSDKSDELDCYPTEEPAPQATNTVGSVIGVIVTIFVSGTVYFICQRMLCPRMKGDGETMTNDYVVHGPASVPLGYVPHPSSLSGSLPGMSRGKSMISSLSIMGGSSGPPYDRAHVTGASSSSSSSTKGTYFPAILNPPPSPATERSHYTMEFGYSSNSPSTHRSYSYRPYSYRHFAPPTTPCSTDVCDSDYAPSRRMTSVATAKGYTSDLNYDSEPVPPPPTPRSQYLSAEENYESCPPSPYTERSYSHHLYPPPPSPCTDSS
Kind of test: FACS on 293 cells transfected with LRP6Δ1/4 [cont.]. The protocol:
as §2

B1: anti-LRP6 monoclonal antibody 1433.8 (antibody, V domains shown)
VH: QVQLQQSGAELAKPGASVKMSCKASGYTFTSYWMHWVKQRPGQGLEWIGYINPSTGYTEYNQKFRDKATLTADKSSSTANMQLSSLTSEDSAVYYCTRTAQYYGSPRGYYAMDSWGQGTSVTVSS
VL: MTQAAFSNPVTLGTSASISCRSSKSLLHSNGITYLCWFLQKPGQSPQLLIYLMSNLASGVPDRFSSSGSGTDFTLRISRVEAEDVGVYFCAQNLDLPWTFGGGTKLEI
notes: Murine hybridoma mAb, protein G purified; also called VH21/VL21
Take B1: in test [1], the Kd came to 1.68 nM, the koff is 7.7e-05 s⁻¹ and the kon was 45600 M⁻¹ s⁻¹.

B2: anti-LRP6 monoclonal antibody 1470.2 (antibody, V domains shown)
VH: DVNLVESGGGLVKLGGSLKLSCAASGFTFSSFYMSWVRQTPEKRLDLVAAINTNGGSTYYSDTVKGRFTISRDNAKNTLYLQMSSLKSEDTALFYCARQPYYGGPMDFWGQGTSVTVSS
VL: DIVLTQSPATLSVTPGDSVSLSCRASQSINNNLHWYQQKSHESPRLLIKYASQSISGIPSRFSGSGSGTDFTLSINSVETEDFGMYFCQQSNNWPLTFGAGTKLEL
notes: Murine hybridoma mAb, protein G purified; also called VH22/VL22
On to B2, for which the Kd in test [2] is 3.51 nM. For the same molecule, the kon in test [3] was 20800 M⁻¹ s⁻¹. Besides, the koff in test [4] came out at 7.3e-05 s⁻¹.

B3: anti-LRP6 monoclonal antibody 1115.3 (antibody, V domains shown)
VH: DVKLVESGGGLVKLGGSLRLSCAASGFSFSTSYMSWVRQTPEKRLELVAAINLNGGSTYYSDTVKGRFTISRDNAKNTLYLQMSSLKSEDTAFYYCASELAGYGTPFAYWGQGTLVTVSA
VL: B2 VL with R24K, N30S, A51T, S74T, S77N, N93S, L106V
notes: Murine hybridoma mAb, protein G purified; also called VH16/VL16
Regarding B3, in test [1], the Kd came out at 1.45 nM, the koff came out at 5.34e-05 s⁻¹ and the kon amounted to 36800 M⁻¹ s⁻¹.

B4: anti-LRP6 monoclonal antibody 1213.2 (antibody, V domains shown)
VH: B2 VH with A50T, S84N, A97V, P105T, F108Y
VL: B2 VL with S18R, S91T
notes: Murine hybridoma mAb, protein G purified; also called VH17/VL17
Turning to B4, in test [1], the Kd was found to be 1.07 nM, the koff turned out to be 6.3e-05 s⁻¹ and the kon turned out to be 58800 M⁻¹ s⁻¹.

B5: anti-LRP6 monoclonal antibody 1903.1 (antibody, V domains shown)
VH: B2 VH with S31R, D107E
VL: DIVMTQSQKFMSTSVGDRVSVTCKASQNVGTNVAWYQQKPGQSPKALIYSASYRYSGVPDRFTGSGSGSDFTLTISNVQSEDLAEYFCQQYNSYPLTFGAGTKLEL
notes: Murine hybridoma mAb, protein G purified; also called VH23/VL23
Regarding B5, in test [1], the Kd was found to be 2.79 nM, the koff was found to be 9.4e-05 s⁻¹ and the kon was found to be 33700 M⁻¹ s⁻¹.

B6: anti-LRP6 monoclonal antibody 1293.11 (antibody, V domains shown)
VH: QVQLQQSGPELVKPGASVRISCKASGYTFTTYYIHWLKQRPGQGLEWIGWIFPGNVNTKYNAKFKGKATLTADKSSSTAYMQLSSLTSEDSAVYFCAREELQYYFDYWGQGSALTVSS
VL: QIVLTQSPAIMSASPGEKVTISCSANSSVRFMFWYQQKPGSSPKPLIYRTSNLASGVPARFSGSGSGTSYSLTISSMEAEDAATYYCQQYHSYPWTFGGGTKLEI
notes: Murine hybridoma mAb, protein G purified; also called VH20/VL20
In the case of B6, in test [1], the dissociation constant (Kd) is 57 nM, the koff was determined as 0.000124 s⁻¹ and the kon was 2200 M⁻¹ s⁻¹.

B7: anti-LRP6 monoclonal antibody 135.16 (antibody, V domains shown)
VH: QVQLQQSGAELVKPGASVKMSCKAFGYTFTSYPIEWMKQNHGKSLEWIGNFHPYNDNTKYNEKFKGKAKLTVEKSSSTVYLELSRSTSDDSAVYYCARGYSGNYFSAMDYWGQGTSVTVSS
VL: DIVMTQSQKFMSTSVGDRVSITCKASQNVRNDVAWYQQKPGQSPKSLIYLASNRHTGVPDRFTGSGSGTDFTLTISNVQSEDLADYFCLQHWNYPYTFGGGTKLEIKR
notes: Murine hybridoma mAb, protein G purified; also called mAb135.16
On to B7, for which, in test [5], the binding result was “no binding”. Besides, in the test with LRP6Δ1/4, the binding result is “no binding (tested: not stated)”. Also, in test [1], the Kd stood at 0.73 nM, the off-rate constant (koff) amounted to 1.9e-05 s⁻¹ and the kon is 26300 M⁻¹ s⁻¹.
